The target in one experiment is T1, LS3.
T1 construct: human/mouse chimera on transfected HEK293 cells; also called AA 25-312
T1 MET ECD-SV5-GPI fusion: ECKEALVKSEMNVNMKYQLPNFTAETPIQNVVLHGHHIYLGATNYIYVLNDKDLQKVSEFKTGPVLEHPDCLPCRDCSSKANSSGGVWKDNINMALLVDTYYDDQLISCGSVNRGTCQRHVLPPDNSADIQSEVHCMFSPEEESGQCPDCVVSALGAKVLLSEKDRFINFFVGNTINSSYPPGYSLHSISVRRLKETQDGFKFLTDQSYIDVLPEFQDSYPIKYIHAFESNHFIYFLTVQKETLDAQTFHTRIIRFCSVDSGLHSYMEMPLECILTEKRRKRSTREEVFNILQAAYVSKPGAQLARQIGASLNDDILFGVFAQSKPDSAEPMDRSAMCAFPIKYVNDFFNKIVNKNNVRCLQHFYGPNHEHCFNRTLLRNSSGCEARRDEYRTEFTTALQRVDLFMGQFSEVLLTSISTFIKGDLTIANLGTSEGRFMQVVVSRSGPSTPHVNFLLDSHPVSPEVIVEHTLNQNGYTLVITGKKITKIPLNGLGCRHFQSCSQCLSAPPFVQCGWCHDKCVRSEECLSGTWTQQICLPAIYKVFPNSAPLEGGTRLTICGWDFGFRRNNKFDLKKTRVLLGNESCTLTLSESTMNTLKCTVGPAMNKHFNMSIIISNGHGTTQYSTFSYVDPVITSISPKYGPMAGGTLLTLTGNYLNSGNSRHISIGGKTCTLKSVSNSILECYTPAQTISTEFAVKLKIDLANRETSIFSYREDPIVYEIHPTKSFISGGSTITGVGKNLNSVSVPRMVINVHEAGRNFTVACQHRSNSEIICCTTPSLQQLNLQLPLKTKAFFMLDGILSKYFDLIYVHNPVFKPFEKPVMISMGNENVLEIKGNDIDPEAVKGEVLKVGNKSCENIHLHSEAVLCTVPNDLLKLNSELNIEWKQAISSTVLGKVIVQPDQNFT
The experiment is described as follows: flow cytometry on transfected HEK293 cells. (Flow cytometry measures light scatter and fluorescence of single cells or particles in a stream.)

A further experiment deals with T2, Mouse Blade 1-4.
T2 construct: human/mouse chimera on transfected HEK293 cells; also called AA 25-295
T2 MET ECD-SV5-GPI fusion: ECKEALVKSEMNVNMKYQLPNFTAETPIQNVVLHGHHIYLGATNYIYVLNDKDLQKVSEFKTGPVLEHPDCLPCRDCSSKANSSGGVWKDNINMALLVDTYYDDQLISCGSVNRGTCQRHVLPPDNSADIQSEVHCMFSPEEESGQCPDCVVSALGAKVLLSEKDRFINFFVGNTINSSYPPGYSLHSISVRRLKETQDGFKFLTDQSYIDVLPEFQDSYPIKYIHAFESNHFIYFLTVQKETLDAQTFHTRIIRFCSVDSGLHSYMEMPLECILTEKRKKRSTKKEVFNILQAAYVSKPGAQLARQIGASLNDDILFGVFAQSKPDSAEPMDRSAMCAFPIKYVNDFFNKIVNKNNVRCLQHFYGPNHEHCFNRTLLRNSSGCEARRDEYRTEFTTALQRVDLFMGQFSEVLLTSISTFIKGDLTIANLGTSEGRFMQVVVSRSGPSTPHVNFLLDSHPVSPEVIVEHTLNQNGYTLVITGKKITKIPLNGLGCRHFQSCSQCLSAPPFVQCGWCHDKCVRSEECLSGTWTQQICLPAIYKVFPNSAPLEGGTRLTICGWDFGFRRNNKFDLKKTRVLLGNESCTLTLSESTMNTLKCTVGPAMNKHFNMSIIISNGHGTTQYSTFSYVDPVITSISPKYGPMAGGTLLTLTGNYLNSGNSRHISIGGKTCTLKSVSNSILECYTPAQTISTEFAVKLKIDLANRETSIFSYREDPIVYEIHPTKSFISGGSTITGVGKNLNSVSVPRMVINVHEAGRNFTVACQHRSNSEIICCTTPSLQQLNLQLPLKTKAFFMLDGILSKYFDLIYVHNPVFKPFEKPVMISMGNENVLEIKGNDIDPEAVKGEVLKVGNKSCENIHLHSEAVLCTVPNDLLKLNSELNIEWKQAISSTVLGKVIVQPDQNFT
The experiment in a line: flow cytometry on transfected HEK293 cells.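 Further: antibodies applied at 50 µg/ml, binding called specific when fluorescence exceeds the mean signal on a negative control chicken or mouse MET construct plus four SD.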

For another experiment, the target named is T3, LS4.
T3 construct: human/mouse chimera on transfected HEK293 cells; also called AA 25-371
T3 MET ECD-SV5-GPI fusion: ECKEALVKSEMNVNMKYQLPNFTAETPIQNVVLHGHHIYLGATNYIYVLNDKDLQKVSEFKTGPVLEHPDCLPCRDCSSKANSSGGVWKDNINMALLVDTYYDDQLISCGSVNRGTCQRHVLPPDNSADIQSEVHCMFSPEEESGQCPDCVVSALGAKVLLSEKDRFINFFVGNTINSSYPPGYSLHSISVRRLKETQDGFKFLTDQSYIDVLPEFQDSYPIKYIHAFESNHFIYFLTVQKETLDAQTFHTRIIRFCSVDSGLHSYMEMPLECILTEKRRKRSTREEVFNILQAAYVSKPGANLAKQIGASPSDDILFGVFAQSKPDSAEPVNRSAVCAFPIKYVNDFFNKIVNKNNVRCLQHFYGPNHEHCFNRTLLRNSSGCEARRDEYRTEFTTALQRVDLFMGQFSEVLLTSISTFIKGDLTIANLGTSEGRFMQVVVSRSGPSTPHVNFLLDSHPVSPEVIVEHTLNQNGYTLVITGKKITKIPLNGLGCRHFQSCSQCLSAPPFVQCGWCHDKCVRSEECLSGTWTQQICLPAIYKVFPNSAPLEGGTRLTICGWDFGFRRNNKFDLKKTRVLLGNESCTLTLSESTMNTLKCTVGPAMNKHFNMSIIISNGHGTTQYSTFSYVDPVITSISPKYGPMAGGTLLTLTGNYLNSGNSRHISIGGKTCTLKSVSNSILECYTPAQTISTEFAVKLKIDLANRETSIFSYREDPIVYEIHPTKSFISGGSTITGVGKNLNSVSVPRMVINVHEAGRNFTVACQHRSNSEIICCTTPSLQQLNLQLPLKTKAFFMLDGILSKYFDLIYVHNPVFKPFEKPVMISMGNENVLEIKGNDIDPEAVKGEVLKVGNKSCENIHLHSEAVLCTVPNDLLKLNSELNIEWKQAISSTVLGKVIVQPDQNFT
The experiment in a line: flow cytometry on transfected HEK293 cells.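 Further: antibodies applied at 50 µg/ml, binding called specific when fluorescence exceeds the mean signal on a negative control chicken or mouse MET construct plus four SD.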

Experiment [1] has as its target T4, His tagged cynomolgus MET ECD (Sinobiological) (cynomolgus).
T4 construct: extracellular domain; Bought monovalent antigen
The experiment is described as follows: SPR (Bio-Rad XPR-36); antibody captured on anti-human IgG Fc surface, MET ECD 25 to 1.56 nM, 1:1 Langmuir fit.
Protocol: His tagged human or cynomolgus MET ECD antigens were purchased from Sinobiological, China. […] Measurements were conducted with a plate rotation speed of 1000 rpm and sensors were regenerated and reused by brief 5 second alternations between exposure to 10 mM Glycine:HCl buffer (pH 1.5) or PBS buffer containing 1% BSA and 0.001% Tween 20 three times. For the Surface Plasmon Resonance experiments conducted on the Bio-Rad XPR-36 instrument, anti-MET antibodies were adjusted to a concentration of 0.25-0.5 μg/ml and captured on anti-human IgG Fc surfaces generated by immobilizing a monoclonal anti-human Fc antibody (Biacore, Denmark). […] The recorded binding responses were fitted to a simple Langmuir 1:1 binding model for calculation of the on-rate (kon or ka), off-rate (koff or kd) and affinity (KD) constants using double referencing.

Results on 2 molecules are retold here after patent publication US20180327500A1 (SYMPHOGEN A S, published 2018).

Protocol for LS3: (§1) Cut-off values defined as the average fluorescence signal of all antibodies tested at 50 μg/ml to the negative control chicken or mouse MET construct+four standard deviations were employed to discriminate background binding from specific binding for the domain exchange or blade exchange constructs.
Protocol for LS4: as §1
Protocol for Mouse Blade 1-4: as §1

B1: humanized antibody 9006 (antibody, human IgG1, kappa, V domains shown)
VH: QVQLVQSGSELKKPGASVKVSCKASGYTFTNFRMNWVKQAPGQGLKWMGWINTYTGEPTYVDDLKGRFVFSLDTSVSTAYLQISSLKAEDTAVYYCARKGIARAMDYWGQGTTVTVSS
VL: DIVMTQSPDSLAVSLGERATINCKSSQSLLDSGNQKNYLAWYQQKPGQPPKLLIFGASTRESGVPDRFSGSGSGTDFTLTISSLQAEDVAVYYCQNDHSYPYTFGQGTKLEIKR
notes: also called Hu9006; hu9006
A word on the Kd: it is the constant that tells how readily two partners part at equilibrium. Read a low Kd as tighter binding. One may read the koff as a measure of how fast the partners let go of each other. The term kon denotes the rate constant with which the complex forms. Low values mean slower complex formation, high ones faster complex formation. Take B1: the binding result with LS3 is reported as “no binding (tested: 50 µg/ml)”. In the experiment with Mouse Blade 1-4, the binding result is “no binding (tested: 50 µg/ml)”. Besides, in the experiment with LS4, the binding result is on record as “no binding (tested: 50 µg/ml)”. In experiment [1], this molecule gave a Kd of 0.086 nM, a koff of 1.6e-05 s⁻¹ and a kon of 180000 M⁻¹ s⁻¹.

B2: humanized antibody 9338 (antibody, human IgG1, kappa, V domains shown)
VH: QVQLVQSGAEVKKPGSSVKVSCKASGYTFTSYWMHWVRQAPGQGLEWMGYINPSSGHIENNQKFKDRVTITADKSTSTAYMELSSLRSEDTAVYYCARGRFAYWGQGTLVTVSS
VL: EIVLTQSPATLSLSPGERATLSCSASSSVSSGYLYWYQQKPGQAPRLLIYSTSNLASGIPARFSGSGSGTDFTLTISSLEPEDFAVYYCHQWSSYPFTFGSGTKLEIKR
notes: also called Hu9338; hu9338
In the case of B2, the binding result with LS3 was “no binding (tested: 50 µg/ml)”. The binding result in the experiment with Mouse Blade 1-4 is on record as “no binding (tested: 50 µg/ml)”. Moreover, in the experiment with LS4, the binding result is listed as “no binding (tested: 50 µg/ml)”. Also, in experiment [1], the Kd worked out at 0.074 nM, the koff is 5.4e-05 s⁻¹ and the on-rate constant (kon) was found to be 740000 M⁻¹ s⁻¹.
